Test results from patent publication US20230322953A1 (HARBOUR BIOMED SHANGHAI, published 2023).
Substitutions are numbered along the chain they refer to.

B1: PR000260, anti-CD3 monoclonal antibody SP34 (hIgG1 chimeric antibody) (antibody, V domains shown)
VH: EVQLVESGGGLVQPKGSLKLSCAASGFTFNTYAMNWVRQAPGKGLEWVARIRSKYNNYATYYADSVKDRFTISRDDSQSILYLQMNNLKTEDTAMYYCVRHGNFGNSYVSWFAYWGQGTLVTVSA
VL: QAVVTQESALTTSPGETVTLTCRSSTGAVTTSNYANWVQEKPDHLFTGLIGGTNKRAPGVPARFSGSLIGDKAALTITGAQTEDEAIYFCALWYSNLWVFGGGTKLTVLG
B2: PR001991 (bispecific antibody, human IgG1, kappa, L234A L235A)
chain 1: EVQLLESGGGLVQPGGSLRLSCAASGFTFNTYAMNWVRQAPGKGLEWVSRIRSKYNNYATYYADSVKDRFTISRDDSKSTLYLQMNSLRAEDTAVYYCVRHGNFGNSYVSWFAYWGQGTLVTVSSRTVAAPSVFIFPPSDEQLKSGTASVVCLLNNFYPREAKVQWKVDNALQSGNSQESVTEQDSKDSTYSLSSTLTLSKADYEKHKVYACEVTHQGLSSPVTKSFNRGEC
chain 2: QAVVTQEPSLTVSPGGTVTLTCRSSTGAVTTSNYANWVQQKPGQAPRGLIGGTNKRAPWTPARFSGSLLGDKAALTLLGAQPEDEAEYFCALWYSNLWVFGGGTKLTVLSSASTKGPSVFPLAPSSKSTSGGTAALGCLVKDYFPEPVTVSWNSGALTSGVHTFPAVLQSSGLYSLSSVVTVPSSSLGTQTYICNVNHKPSNTKVDKKVEPKSCDKTHTCPPCPAPEAAGGPSVFLFPPKPKDTLMISRTPEVTCVVVDVSHEDPEVKFNWYVDGVEVHNAKTKPREEQYNSTYRVVSVLTVLHQDWLNGKEYKCKVSNKALGAPIEKTISKAKGQPREPQVYTLPPCREEMTKNQVSLWCLVKGFYPSDIAVEWESNGQPENNYKTTPPVLDSDGSFFLYSKLTVDKSRWQQGNVFSCSVMHEALHNHYTQKSLSLSPGK
chain 3: EVQLLESGGGLVQPGGSLRLSCAASGFTFSSYAMIWVRQAPGKGLEWVSGISESGGSTYYADSVKGRFTISRDNSKNTLYLQMNSLRAEDTAVYFCVKDLDDILTGYYKDYWGQGTLVTVSSASEPKSSDKTHTCPPCPAPEAAGGPSVFLFPPKPKDTLMISRTPEVTCVVVDVSHEDPEVKFNWYVDGVEVHNAKTKPREEQYNSTYRVVSVLTVLHQDWLNGKEYKCKVSNKALGAPIEKTISKAKGQPREPQVCTLPPSREEMTKNQVSLSCAVKGFYPSDIAVEWESNGQPENNYKTTPPVLDSDGSFFLVSKLTVDKSRWQQGNVFSCSVMHEALHNHYTQKSLSLSPGK
notes: CD3 Fab from PR000511, BCMA VH from PR000940; IgG1 knob/hole, AAG
B3: PR001992 (bispecific antibody, human IgG1, kappa, L234A L235A)
chain 1: B2 chain 1
chain 2: B2 chain 2
chain 3: EVQLVETGGGLIQPGGSLRLSCAASGFPVSSNYMSWVRQAPGKGLEWVSVIFSGGRTYYADSVKGRFTISRDNSKNTLYLQMNSLRAEDTAVYYCARRNWIDGRDAFDIWGQGTMVTVSSASEPKSSDKTHTCPPCPAPEAAGGPSVFLFPPKPKDTLMISRTPEVTCVVVDVSHEDPEVKFNWYVDGVEVHNAKTKPREEQYNSTYRVVSVLTVLHQDWLNGKEYKCKVSNKALGAPIEKTISKAKGQPREPQVCTLPPSREEMTKNQVSLSCAVKGFYPSDIAVEWESNGQPENNYKTTPPVLDSDGSFFLVSKLTVDKSRWQQGNVFSCSVMHEALHNHYTQKSLSLSPGK
notes: Structure 12 (Fab(cross VH/VL)-Fc-VH): CD3 Fab from PR000511, BCMA VH from PR000943; IgG1 knob/hole, AAG
B4: PR001994 (bispecific antibody, human IgG1, kappa, L234A L235A)
chain 1: B2 chain 1
chain 2: B2 chain 2
chain 3: EVQLVETGGGLIQPGGSLRLSCAASGFTVSDNYMTWVRQAPGKGLEWVSVIFSGGNTYYADSVKGRFTISRDNAKNTLYLQMNSLRAEDTALYYCARRNYDDTRGTDVFDIWGQGTMVTVSSASEPKSSDKTHTCPPCPAPEAAGGPSVFLFPPKPKDTLMISRTPEVTCVVVDVSHEDPEVKFNWYVDGVEVHNAKTKPREEQYNSTYRVVSVLTVLHQDWLNGKEYKCKVSNKALGAPIEKTISKAKGQPREPQVCTLPPSREEMTKNQVSLSCAVKGFYPSDIAVEWESNGQPENNYKTTPPVLDSDGSFFLVSKLTVDKSRWQQGNVFSCSVMHEALHNHYTQKSLSLSPGK
notes: Structure 12 (Fab(cross VH/VL)-Fc-VH): CD3 Fab from PR000511, BCMA VH from PR001046; IgG1 knob/hole, AAG
B5: PR001993 (bispecific antibody, human IgG1, kappa, L234A L235A)
chain 1: B2 chain 1
chain 2: B2 chain 2
chain 3: B3 chain 3 with P28T, S35T, R56S, N99I, W100A, I101V, D102A, R104H, A106V
notes: Structure 12 (Fab(cross VH/VL)-Fc-VH): CD3 Fab from PR000511, BCMA VH from PR001035; IgG1 knob/hole, AAG
B6: PR002002 (bispecific antibody, IgG1)
chain 1: QAVVTQEPSLTVSPGGTVTLTCRSSTGAVTTSNYANWVQQKPGQAPRGLIGGTNKRAPWTPARFSGSLLGDKAALTLLGAQPEDEAEYFCALWYSNLWVFGGGTKLTVLGGGQSGQGGSGGGGSEVQLVESGGGLVQPGGSLKLSCAASGFTFNTYAMNWVRQASGKGLEWVGRIRSKYNNYATYYADSVKDRFTISRDDSKSTLYLQMNSLKTEDTAVYYCVRHGNFGNSYVSWFAYWGQGTLVTVSSASEPKSSDKTHTCPPCPAPEAAGGPSVFLFPPKPKDTLMISRTPEVTCVVVDVSHEDPEVKFNWYVDGVEVHNAKTKPREEQYNSTYRVVSVLTVLHQDWLNGKEYKCKVSNKALGAPIEKTISKAKGQPREPQVYTLPPCREEMTKNQVSLWCLVKGFYPSDIAVEWESNGQPENNYKTTPPVLDSDGSFFLYSKLTVDKSRWQQGNVFSCSVMHEALHNHYTQKSLSLSPGK
chain 2: B4 chain 3
notes: Structure 20 (scFv(VL-VH)-Fc-VH): CD3 scFv from PR000510, BCMA VH from PR001046; IgG1 knob/hole, AAG
B7: PR001995 (bispecific antibody, IgG1)
chain 1: EVQLLESGGGLVQPGGSLRLSCAASGFTFNTYAMNWVRQAPGKGLEWVSRIRSKYNNYATYYADSVKDRFTISRDDSKSTLYLQMNSLRAEDTAVYYCVRHGNFGNSYVSWFAYWGQGTLVTVSSASTKGPSVFPLAPSSKSTSGGTAALGCLVKDYFPEPVTVSWNSGALTSGVHTFPAVLQSSGLYSLSSVVTVPSSSLGTQTYICNVNHKPSNTKVDKKVEPKSC
chain 2: QAVVTQEPSLTVSPGGTVTLTCRSSTGAVTTSNYANWVQQKPGQAPRGLIGGTNKRAPWTPARFSGSLLGDKAALTLLGAQPEDEAEYFCALWYSNLWVFGGGTKLTVLGQPKAAPSVTLFPPSSEELQANKATLVCLISDFYPGAVTVAWKADSSPVKAGVETTTPSKQSNNKYAASSYLSLTPEQWKSHRSYSCQVTHEGSTVEKTVAPTECSDKTHTCPPCPAPEAAGGPSVFLFPPKPKDTLMISRTPEVTCVVVDVSHEDPEVKFNWYVDGVEVHNAKTKPREEQYNSTYRVVSVLTVLHQDWLNGKEYKCKVSNKALGAPIEKTISKAKGQPREPQVYTLPPCREEMTKNQVSLWCLVKGFYPSDIAVEWESNGQPENNYKTTPPVLDSDGSFFLYSKLTVDKSRWQQGNVFSCSVMHEALHNHYTQKSLSLSPGK
chain 3: B2 chain 3
notes: as for B2
B8: PR001996 (bispecific antibody, IgG1)
chain 1: B7 chain 1
chain 2: B7 chain 2
chain 3: B3 chain 3
notes: Structure 13 (Fab(cross Fd/LC)-Fc-VH): CD3 Fab from PR000511, BCMA VH from PR000943; IgG1 knob/hole, AAG
B9: PR001999 (bispecific antibody, IgG1)
chain 1: B6 chain 1
chain 2: B2 chain 3
notes: IgG1 knob/hole, AAG
B10: PR001998 (bispecific antibody, IgG1)
chain 1: B7 chain 1
chain 2: B7 chain 2
chain 3: B4 chain 3
notes: Structure 13 (Fab(cross Fd/LC)-Fc-VH): CD3 Fab from PR000511, BCMA VH from PR001046; IgG1 knob/hole, AAG
B11: PR001997 (bispecific antibody, IgG1)
chain 1: B7 chain 1
chain 2: B7 chain 2
chain 3: B3 chain 3 with P28T, S35T, R56S, N99I, W100A, I101V, D102A, R104H, A106V
notes: Structure 13 (Fab(cross Fd/LC)-Fc-VH): CD3 Fab from PR000511, BCMA VH from PR001035; IgG1 knob/hole, AAG
B12: PR002000 (bispecific antibody, IgG1)
chain 1: B6 chain 1
chain 2: B3 chain 3
notes: Structure 20 (scFv(VL-VH)-Fc-VH): CD3 scFv from PR000510, BCMA VH from PR000943; IgG1 knob/hole, AAG

Biological target: T1, human CD3 (TCR/CD3 complex) on human T cells (human, UniProt P07766 23-207)
T1 construct: whole, on cells
Experiment: flow cytometry (FACS) on human T cells, Experiment 1
Procedure: (§1) The binding ability of the antibody molecules to human or cynomolgus monkey T cells was tested by flow cytometry FACS. […] The T cell density was adjusted to 1×10⁶ cells/mL. […] The cells were incubated at 4° C. for 1 h away from light. Then, the cells in each well were rinsed twice with 100 μL of pre-cooled PBS, and centrifuged at 500 g at 4° C. for 5 min, and then the supernatant was discarded. […] The cells in each well were rinsed twice with 100 μL of pre-cooled PBS, and centrifuged at 500 g at 4° C. for 5 min, and then the supernatant was discarded. Finally, the cells in each well were resuspended in 200 μL of pre-cooled PBS. Fluorescence signal values were read using a BD FACS CANTOII flow cytometer or an ACEA NovoCyte flow cytometer, and the data were processed and analyzed using FlowJo v10 (FlowJo, LLC) software. The data were processed and analyzed by plotting using GraphPad Prism 8 software, and binding curves of the antibodies to target cells, EC₅₀ values and other parameters were obtained through four-parameter nonlinear fitting.

T1 sequence (P07766 23-207, one chain of several): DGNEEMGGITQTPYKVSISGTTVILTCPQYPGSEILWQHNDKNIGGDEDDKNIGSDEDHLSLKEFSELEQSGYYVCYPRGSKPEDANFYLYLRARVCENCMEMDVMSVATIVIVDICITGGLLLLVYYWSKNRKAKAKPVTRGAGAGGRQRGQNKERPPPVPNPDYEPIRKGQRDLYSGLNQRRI

Point of comparison: B1, “Maximum MFI” value 7160 MFI. Against it:
- B2 — lower, 3240 MFI
- B3 — lower, 2240 MFI
- B4 — lower, 3380 MFI
- B5 — lower, 4780 MFI

Biological target: T1, human CD3 (TCR/CD3 complex) on human T …
Experiment: flow cytometry (FACS) on human T cells, Experiment 2
Procedure: as §1

Point of comparison: B10, “Maximum MFI” value 3320 MFI. Against it:
- B1 — higher, 6030 MFI
- B6 — lower, 1120 MFI
- B7 — lower, 2920 MFI
- B8 — higher, 3440 MFI
- B9 — lower, 1170 MFI
- B11 — higher, 4460 MFI
- B12 — lower, 1730 MFI
